From PMC3431356, “Staphylococcus aureus Methicillin-Resistance Factor fmtA Is Regulated by the Global Regulator SarA” come the findings set out here.

The target of data set [1] is T1, SarA (Staphylococcus aureus MRSA252, UniProt Q6GJ52 1-124).
T1 sequence: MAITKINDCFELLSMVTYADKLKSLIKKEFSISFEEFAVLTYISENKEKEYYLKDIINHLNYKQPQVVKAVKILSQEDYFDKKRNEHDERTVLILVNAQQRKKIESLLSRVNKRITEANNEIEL
The data set can be described thus: EMSA; printed as >=1.8 uM; no saturation up to 3.6 uM, binding stated; EMSA: 10 mM Tris-HCl pH 7.5, 50 mM KCl, 1 mM DTT, 5 mM MgCl2, 2.5% glycerol, 1 ug poly(dI-dC), 200 ng herring sperm DNA, 30 min, temperature not stated, 6% native gel; Kd = protein at 50% bound DNA. Footprinting: same buffer, 37 C, DNase I at 25 C. The following applies: protein: recombinant; tags: none (pET22b, pelB leader removed); chain copies: 2; label: 5'-32P. Background: Mobility shift assays separate free from complexed probe on a gel.

Data set [2] addresses T1, SarA. The data set can be described thus: EMSA; no binding up to 1.8 uM SarA; EMSA: 10 mM Tris-HCl pH 7.5, 50 mM KCl, 1 mM DTT, 5 mM MgCl2, 2.5% glycerol, 1 ug poly(dI-dC), 200 ng herring sperm DNA, 30 min, temperature not stated, 6% native gel; Kd = protein at 50% bound DNA. Footprinting: same buffer, 37 C, DNase I at 25 C. The following applies: protein: recombinant; tags: none (pET22b, pelB leader removed); chain copies: 2; label: 5'-32P.

Data set [3] deals with T1, SarA. The data set can be described thus: EMSA; EMSA: 10 mM Tris-HCl pH 7.5, 50 mM KCl, 1 mM DTT, 5 mM MgCl2, 2.5% glycerol, 1 ug poly(dI-dC), 200 ng herring sperm DNA, 30 min, temperature not stated, 6% native gel; Kd = protein at 50% bound DNA. Footprinting: same buffer, 37 C, DNase I at 25 C. The following applies: protein: recombinant; tags: none (pET22b, pelB leader removed); chain copies: 2; label: 5'-32P; blunt.

B1: seqA1 (dsDNA)
DNA 1: CATTATAGCCTTAAATTGTAGTACTTTATAGTAAAAAATACAAATGTTATGTC
DNA 2: GACATAACATTTGTATTTTTTACTATAAAGTACTACAATTTAAGGCTATAATG
As to B1, the Kd (as a rule, a measure of binding affinity in units of concentration) with SarA [1] is greater than 1800 nM.

B2: seqB1 (dsDNA)
DNA 1: CATATTAGAAAAACTTATTACTATGTAGCGTAAAGC
DNA 2: GCTTTACGCTACATAGTAATAAGTTTTTCTAATATG
As to B2, in the data set with SarA [2], the binding result is listed as “no binding”.

B3: Pagr 45-bp (dsDNA)
DNA 1: GTAAATTTTTTTATGTTAAAATATTAAATACAAATTACATTTAAC
DNA 2: GTTAAATGTAATTTGTATTTAATATTTTAACATAAAAAAATTTAC
Turning to B3, the Kd in the data set with SarA [3] is roughly 400 nM.
